Assay [1] deals with T1, human CD47 on the cell surface (human, UniProt Q08722 19-323).
T1 construct: whole, on cells; also called huCD47; native CD47
Description: CD47-SIRPα competitive binding assay: His-tagged soluble human SIRPα (200 ng/ml) on hCD47-transfected CHO cells, antibody 3.3 pM-330 nM; blocked ligand SIRPα.

For a further assay, the target named is T2, human CD47 (human, UniProt Q08722 19-141, limits assumed).
T2 construct: also called hCD47
As to the kind of experiment: affinity maturation by phage display on hCD47; positive in hCD47-SIRPα inhibition screen, reformatted as IgG.

Numbering of substitutions follows the chain as printed.

B1: Kc4C3 antibody (antibody, human IgG1, lambda, V domains shown)
VH: not shown
VL: QSALTQPASVSGSPGQSITISCTGTSSDVRAANYVSWYQQHPGKAPKLMIYKNSTRPSGVSNRFSGSKSGNTASLTISGLQAEDEADYYCSSYDWWFRPKVFGGGTKLTVLG
notes: IgG, lambda
On to B1, for which the binding result (in assay [1]; with human CD47) was “binds” in each case.

B2: Kc4B1 antibody (antibody, human IgG1, lambda, V domains shown)
VH: not shown
VL: B1 VL with A32N, K52E, N53S, T55A
notes: IgG, lambda
As for B2, the binding result (in assay [1]; with human CD47) was “binds” each time.

B3: Kc4G9 antibody (antibody, human IgG1, lambda, V domains shown)
VH: not shown
VL: B1 VL with R30E, A31R, A32K
notes: IgG, lambda
Take B3: the binding result (in assay [1]; with human CD47) was “binds” throughout.

B4: Kc4E2 antibody (antibody, human IgG1, lambda, V domains shown)
VH: not shown
VL: B1 VL with R30Y, A31Y, A32N, N33K, K52E, N53S, T55K
notes: IgG, lambda; also called KC4-P2E2
In the case of B4, the binding result (in assay [1]; with human CD47) was “binds” in each case.

B5: Kc4A1 antibody (antibody, human IgG1, lambda, V domains shown)
VH: not shown
VL: B1 VL with R30S, A32R, K52E, N53S, T55K
notes: IgG, lambda
Take B5: the binding result (in assay [1]; with human CD47) was “binds” in each case.

B6: Kc4E10 antibody (antibody, human IgG1, lambda, V domains shown)
VH: not shown
VL: B1 VL with R30N, A31S, N53S, T55S
notes: IgG, lambda
With B6, the binding result (in assay [1]; with human CD47) was “binds” each time.

B7: Kc4A4 antibody (antibody, human IgG1, lambda, V domains shown)
VH: not shown
VL: B1 VL with G24R, R30N, A31N, A32T, N53T, T55G
notes: IgG, lambda
Turning to B7, the binding result (in assay [1]; in the assay with human CD47) was “binds” in each case.

B8: Kc4F4 antibody (antibody, human IgG1, lambda, V domains shown)
VH: not shown
VL: B1 VL with A31R, K52Q, N53D, T55S
notes: IgG, lambda
On to B8, for which the binding result (in assay [1]; with human CD47) was “binds” throughout.

B9: Kc4G11 antibody (antibody, human IgG1, lambda, V domains shown)
VH: not shown
VL: B1 VL with R30G, A31K, N53D, T55D
notes: IgG, lambda
Turning to B9, the binding result (in assay [1]; with human CD47) was “binds” each time.

B10: Kc4C11 antibody (antibody, human IgG1, lambda, V domains shown)
VH: not shown
VL: B1 VL with A31G, A32N, K52E, T55K
notes: IgG, lambda
In the case of B10, the binding result (in assay [1]; in the assay with human CD47) was “binds” in each case.

B11: Ke8H3 antibody (antibody, human IgG1, kappa, V domains shown)
VH: not shown
VL: DIQMTQSPSSLSASVGDRVTITCRASQSINRYLNWYQQKPGKAPKLLIYAASRLQSGVPSRFSGSGSGTDFTLTISSLQPEDFATYYCQQKHPRGPRTFGQGTKVEIKR
notes: IgG
As for B11, the binding result (in assay [1]; with human CD47) was “binds” each time.

B12: Ke8H6 antibody (antibody, human IgG1, kappa, V domains shown)
VH: not shown
VL: B11 VL with N30S, R31K, A50N, R53T, K91R
notes: IgG
In the case of B12, the binding result (in assay [1]; with human CD47) was “binds” in each case.

B13: Ke81G9 antibody (antibody, human IgG1, kappa, V domains shown)
VH: not shown
VL: B11 VL with N30D, R31K, K91R, P93K, G95S, R97Q
notes: IgG
Turning to B13, the binding result (in assay [1]; with human CD47) was “binds” each time.

B14: Ke86G9 antibody (antibody, human IgG1, kappa, V domains shown)
VH: not shown
VL: B11 VL with N30S, R31K, A50N, R53N, K91R, R97T
notes: IgG
Turning to B14, the binding result (in assay [1]; in the assay with human CD47) was “binds” each time.

B15: Ke81A3 antibody (antibody, human IgG1, kappa, V domains shown)
VH: not shown
VL: B11 VL with R24Q, S28D, R53S, K91R, G95A
notes: IgG
In the case of B15, the binding result (in assay [1]; with human CD47) was “binds” throughout.

B16: Ke8H5 antibody (antibody, human IgG1, kappa, V domains shown)
VH: not shown
VL: B11 VL with N30A, R53S, K91F, P93K, G95A, R97Q
notes: IgG; also called KE8-P6H5
Consider B16, for which the binding result (in assay [1]; with human CD47) was “binds” in each case.

B17: Ke84G9 antibody (antibody, human IgG1, kappa, V domains shown)
VH: not shown
VL: B11 VL with N30S, R31K, R53S, G95S
notes: IgG
Consider B17, for which the binding result (in assay [1]; with human CD47) was “binds” throughout.
